According to patent US20260258115A1 (MAPP BIOPHARMACEUTICAL, published 2026):
Changes are numbered by the printed parent chain.

B1: ADI-14414 (antibody, V domains shown)
VH: QVQLVQSGAEVKKPGSSMKVSCKASGGSFSSYGISWLRQAPGQAPEWMGGIIPIFGTINYAQKFQGRITISADESTSTVYMELSSLRIEDTAVYYCARDGRTSPRYYGWDVWGQGTTVTVSS
VL: DIRLTQSPATLSLSPGDRATLSCRASQSLYTYLSWYQQKPGQAPRLLIYDASNRATGIPARFSGSGSGTDFTLTISSLEPEDFAVYYCHYRSNWPPCTFGGGTKVDIK
notes: also called Ab 80
B2: ADI-14409 (antibody, V domains shown)
VH: QVQLVQSGGEVKKPGASVKVSCKASGYTFTYYGISWVRQAPGQGLEWMGWISAYNGNTNYEQKFQGRVTMTTDTSTGTAYMELRSLTSDDTAVYYCARDRIVVVTAANYYGLDVWGQGTTVTVSS
VL: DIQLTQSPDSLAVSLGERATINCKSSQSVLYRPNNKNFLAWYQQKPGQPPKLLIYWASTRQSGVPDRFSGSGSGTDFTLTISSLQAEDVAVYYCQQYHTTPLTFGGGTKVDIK
notes: also called Ab 75
B3: ADI-14423 (antibody, V domains shown)
VH: EVQLVESGGVVIQPGGSLRLSCAASGFNFDDYSMHWVRQAPGKGLEWVSLISWDGGITYYADSVKGRFTISRDNGKKSLYLQMNSLRTEDTALYYCAKDIDIYSDYAGYFDYWGQGTLVTVSS
VL: DIRMTQSPSSLSASVGDRVTITCRASQGIRNDLGWYQQKPGKAPKRLIYAASSLQSGVPSRFSGSGSGTEFTLTISSLQPEDFATYYCLQHNSYPFTFGQGTRLEIK
notes: also called Ab 89
B4: ADI-14420 (antibody, V domains shown)
VH: EVQLVESGGVVVQPGGSLRLSCAASGFNFDDYAMHWVRQAPGKGLEWVSLISWDGGNTYYSDSVKGRFTISRDNGKNSLYLQMNSLRAEDTALYYCAKDIDRYSGYDYVFHYWGQGTLVTVSS
VL: DIRLTQSPSTLSAYVGDRVTITCRASQSISSWLAWYQQKPGKAPKLLIYKASSLESGVPSRFTGSGSGTEFTLTISGLQPDDFATYYCQQYNSYSTFGGGTKVDIK
notes: also called Ab 86
B5: ADI-14578 (antibody, V domains shown)
VH: QVQLVQSGAEVKKPGSSVKVSCKASGGTFNNYAINWVRQAPGQGLEWMGGIIPMFGTANYAQKFQGRVTMTADESTSTAYMELSSLRSEDTAVYYCASSQIFVGGNYYKLEFDNWGQGTLVTVSS
VL: QSVLTQPPSVSAAPGQKVTISCSGSNSNIGYNDVSWYQQLPGTAPQLLIYDNNKRTSGIPDRFSGSKFGTSATLGITGLQTGDEADYYCGTWDSSLSTVIFGGGTKLTVL
B6: ADI-20959 (antibody, V domains shown)
VH: EVQLLESGAEVKKPGASVKVSCKTSGYTFSNYGVSWVRQAPGQGLEWLGWISAYNGNTNYAQKLQGRVTMTTDSSTSTAYMEVRSLRSDDTAVYYCARDVAPVAASLFDYWGQGTLVTVSS
VL: DIRLTQSPLSLPVTLGQPASISCRSSQSLEFTDGNTYLSWFQQRPGQSPRRLIYKVSNRDSGVPDRFSGSGSGTDFTLKINRVEAEDVGVYYCMQGIHWPPTFGPGTKVEIK
B7: ADI-14410 (antibody, V domains shown)
VH: QVQLQQWGAGLLKPSETLSLTCAIYSGSFSGYYWSWIRQPPGKGLEWIGQINYSGSAYYTPSLKSRVTISVDTSKNQFSLKLSSVTAADTAVYYCARVRITMVQGAIVPCAIDVWGQGTTVTVSS
VL: SYELTQPPSASGTPGQRVTISCSGSSSNIESNFVYWYQQLPGTAPKLLIHRNDQRPSGVPDRFSGSKSGTSASLAISGLRSEDEADYSCAAWDDSLSGVVFGGGTKVTVL
notes: also called Ab 76
B8: ADI-14426 (antibody, V domains shown)
VH: EVQLVESGGGVVQPGRSLRLSCAASGFTFSSFPMHWVRQAPGKGLEWVAVASYDGRNNYYAGSVKGRFTISRDNSKNTLYLQINSLRAEDTAVYYCAREVVIAAHFDYWGQGTLVTVSS
VL: SSELTQEPAVSVALGQTVRITCQGDSLRSFYANWYQQKPGQAPILVIYGKNDRPSGIPDRFSGSNSGNTASLTITGAQAEDEADYYCNSRDSSGNHRVFGGGTKVTVL
notes: also called Ab 92
B9: ADI-14415 (antibody, V domains shown)
VH: EVQLVESGPGLVKPSETLSLTCTVSGGSISNYYWTWIRQPPGEGLEWIGYIYYTGSTNYNPSLKNRVTISVDTPKNQFSLKLNSVTAADTAVYYCARGWGYSYGYESYYNGLDVWGQGTTVTVSS
VL: DIQLTQSPSFLSASVGDRVTITCRASQGISSYLAWYQLKPGKAPKLLIYAAATLETGVPSRFSGSGSGTEFTLTISGLQPEDFATYYCQQLNSFPFTFGPGTKVEIK
notes: also called Ab 81
B10: ADI-14408 (antibody, V domains shown)
VH: QVQLVQSGPALVKTTQTLTLTCTFSGFSLTTSGMCVSWIRQPPGKALEWLARIDWDDDKYYSTSLKTRLTISKDTSKNQVVLTLTNVDPVDTATYYCARMQKYDSSGYYLHYFDSWGQGTLVTVSS
VL: DIRLTQSPSSLSASVGDRVTIACRASQSISSYLNWYQQKPGKSPKVLIYAASILQTGVPSRFSGSGSGTDFTLTISSLQPEDFATYYCQQSYSINQYTFGQGTKVEIK
notes: also called Ab 74
B11: ADI-14411 (antibody, V domains shown)
VH: QVQLVQSGAEVKKPGASVKLSCKASGYTFTRFYIHWVRQAPGQGLEWMGIINPSGGGTSYAQNFQDRVTMTRDTSTSTVYMELSSLRSEDTAVYYCARNGYSTRSLQNNWFDPWGQGTLVTVSS
VL: ETTLTQSPSSLSASVGDRVTITCRASQSIDNYLNWYQQKPGKAPKLLIYEASSLQSGVPSRFSGSGSGTDFTLTISSLQPEDFATYYCQQTYSSLPYTFGQGTKVEIK
notes: also called Ab 77
B12: ADI-14413 (antibody, V domains shown)
VH: EVQLVESGGVVVQPGGSLRLSCAASGFNFDDYSMHWVRQAPGKGLEWVSVISWDGGITYYADSVKGRFTMSRDNGKKSLYLQMNSLRTEDTAVYYCGKDGDIYSSSSAGIDYWGQGTLVTVSS
VL: SYVLTQPPSASGTPGQRVIISCSGSSSNIGSHTVKWYQQLPGTAPKLLIDRNNQRPSGVPDRFSGPKSGTSASLAISGLQSEDEADYYCASWDDSLNGPVFGGGTQLTVL
notes: also called Ab 79
B13: ADI-14422 (antibody, V domains shown)
VH: QVQLVQSGAEVKKPGSSVKVSCKASGGTFSSYTINWVRQAPGQGLEWMGRIIPILGIANYAQKFQGRVTITADKSTSTAYMELSSLRSEDTAVYYCARRHQDTYGMDVWGQGTTVTVSS
VL: QSVLTQPPSVSGAPGQRVTISCTGSSSNIGAGYDVHWYQQLPGTAPKLLIYGNSNRPSGVPDRFSGSKSGTSASLAITGLQAEDEADYYCQSYDSSLSGSVFGGGTKVTVL
notes: also called Ab 88
B14: ADI-14600 (antibody, V domains shown)
VH: QVQLVQSGGGLVKPGGSLRLSCAASGFSFSDYYMNWIRQAPGKGLEWVSYISSSSSYTNYADSVKGRFTISRDNAKKSLYLQMNSLRAEDTAVYYCASQTYSDYARGGAFDIWGQGTTVTVSS
VL: B13 VL with S54N, G104T
B15: ADI-14602 (antibody, V domains shown)
VH: EVQLVESGGGVVQPGGSLRLSCAASGFSFSSCGMHWVRQVSGKGLEWVAFIRYDGSNKFYADSVKGRFTISRDNSKNTLYLQMNSLRVEDTAVYYCAKGGLEDVSTGYSPHYYYGMDVWGQGTTVTVSS
VL: QPVLTQPPSVSVSPGQTASITCSGDKLAYKYTCWYQQKPGQSPVLVIFQDSKRPSGIPERFSGSNSGNTATLTISGTQALDEADYYCQAWDSSTVVFGGGTKLTVL
notes: also called Ab 130
B16: ADI-14577 (antibody, V domains shown)
VH: QVQLVQSGAEVKKPGASVKVSCKASGYTFTNYGITWVRQAPGQGLEWMGWISAYNGVRNYAQKLQGRVTMTIDTSRTTAYMELKNLRSDDTAMYYCARGPPVIAADDFQHWGQGTMVTVSS
VL: DIQMTQSPLSLPVTLGQPASISCRSSQSLVHSNGDTYLNWFQQRPGRSPRRLIYKVSNRDSGVPDRFSGSGSGTDFTLKISRVEAEDVGVYYCMQGTHWPPDFGQGTRLEIK
B17: ADI-14427 (antibody, V domains shown)
VH: QVQLVQSGAEVKKPGSSVKVSCKASGGTFNSYTINWVRQAPGQGLEWMGRIITIPGATNYAQKFQGRVTFTADKSTSTAYMELSSLRSEDTAVYFCAKRGTGYYGMDVWGQGTTVTVSS
VL: QSVLIQPRSVSGSPGQSVTISCTGTSSDVGGYNYVSWYQQHPGKAPKLMIYDVSERPSGVPDRFSGSKSGNTASLTISGLQAEDEADYYCCSFVGIYILVFGGGTKLTVL
notes: also called Ab 93
B18: ADI-14597 (antibody, V domains shown)
VH: EVQLVESGGVVVQPGGSLRLSCAVSGFNFDDYSMHWVRQLPGKGLEWVSLISWDGGITYYADSVKGRFTISRDNSKNSLYLQMNSLRTEDTALYYCAKDGNRYSDNDYYFDYWGQGTLVTVSS
VL: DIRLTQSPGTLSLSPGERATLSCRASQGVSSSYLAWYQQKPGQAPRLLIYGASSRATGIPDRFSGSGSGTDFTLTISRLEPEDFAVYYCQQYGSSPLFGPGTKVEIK
B19: ADI-14604 (antibody, V domains shown)
VH: EVQLLESGGGLVQPGGSLRLSCSASGFTFNNYVMHWVRQAPGKGLEDASAISSNGVSTNYADSVKGRFTISRDNSKNTLYLQMRSLRAEDTALYYCVRDLIPHDSSAYYGYHGMDVWGQGTTVTVSS
VL: QPVLTQPPSASGTPGQSVTISCSGSSSNIGTNVVNWYQQLPGTAPKLLIYSNDLRPSGVPDRFSGSKSGTSASLAISGLQSEDEANYYCAAWDDSLNGVLFGGGTKLTVL

Each binder was assayed against RSV prefusion F (preF), subtype B (respiratory syncytial virus, subtype B) (assay: BLI, IgG).
With B1 the Kd was 3.07 nM.
B2 was tested, and the Kd was 0.289 nM.
For B3, the Kd was 3.4 nM.
B4 gave a Kd of 4.32 nM.
In the case of B5, the Kd is reported as 4.02 nM.
B6 gave a Kd of 0.43 nM.
Work on B7 yielded a Kd of 17.1 nM.
Work on B8 yielded a Kd of 19.2 nM.
Work on B9 yielded a Kd of 3.51 nM.
B10 was tested, and the Kd was 12.8 nM.
Work on B11 yielded a Kd of 3.92 nM.
Binder B12 has a Kd of 2.71 nM.
B13 showed a Kd of 33.9 nM.
Binder B14 has a Kd of 0.986 nM.
With B15 the Kd was 8.94 nM.
For B16, the Kd was 2.19 nM.
Work on B17 yielded a Kd of 10.8 nM.
Work on B18 yielded a Kd of 1.67 nM.
Work on B19 yielded a Kd of 1.53 nM.

The binders below were run against T1, RSV postfusion F (postF), subtype A (respiratory syncytial virus, subtype A, UniProt P03420 26-513) (assay: BLI, IgG).
T1 construct: also called F ΔFP; Postfusion subtype A
B1: no binding.
B2: no binding.
B3: no binding.
B4: no binding.
B5: no binding.
B6: no binding.
B7: no binding.
With B8 the Kd was 0.396 nM.
B9: no binding.
With B10 the Kd was 2.14 nM.
B11: no binding.
B12: no binding.
Work on B13 yielded a Kd of 4.76 nM.
B14: no binding.
B15: no binding.
B16: no binding.
B17 was tested, and the Kd was 3.33 nM.
B18: no binding.
B19: no binding.

The binders below were run against RSV prefusion F (preF), subtype A (respiratory syncytial virus, subtype A, UniProt P03420 26-513) (assay: BLI, IgG).
In the case of B1, the Kd is reported as 5 nM.
For B2, the Kd was 0.15 nM.
With B3 the Kd was 9.65 nM.
With B4 the Kd was 6.35 nM.
Binder B5 has a Kd of 3.29 nM.
With B6 the Kd was 0.337 nM.
Work on B7 yielded a Kd of 3.77 nM.
With B8 the Kd was 23.8 nM.
B9 showed a Kd of 4.2 nM.
Work on B10 yielded a Kd of 8.53 nM.
In the case of B11, the Kd is reported as 6.12 nM.
Work on B12 yielded a Kd of 5.45 nM.
B13 showed a Kd of 11.4 nM.
Binder B14 has a Kd of 0.758 nM.
For B15, the Kd was 4.73 nM.
Binder B16 has a Kd of 0.439 nM.
Binder B17 has a Kd of 0.234 nM.
Work on B18 yielded a Kd of 5.26 nM.
For B19, the Kd was 2.44 nM.
